This data set deals with the molecule itself. Put plainly: crystal structure.

B1: MvINS, an Insig homolog from Mycobacterium vanbaalenii PYR-1 (wild type) (natural protein)
chain: MRLRISEAVVLFLLGAVAALIGDHSHVVTGTTVYHTDAVPFVWSSPFWFPILVGAATASLAELRLHLPAPRDGVTARQALGGVAAVVGTYVTTALVHAFPVVPVTALVCAAAAITWCVLGDGPGAACGVVIAVIGPAVEIALVQLGVFAYHPDSDGLFGVAPFLAPLYFAFGVVAALLGELAVARRPQLGPPVCDTVSRGPGAG
As a reminder, the stoichiometry N is the number of molecules, sites or subunits per partner or assembly. With B1, the “stoichiometry N” value was found to be 3.

(Values after article PMC4704858 (Science (New York, N.Y.), 2015).)
